From patent US20200392198A1 (UNIVERSITY OF COPENHAGEN, published 2020)
Read-outs that look alike come from different tables or passages of the source.

Key:
Assay in all cases: cell-based or functional assay
human GLP-2 receptor [1] = molecular target: T1, human GLP-2 receptor (human, UniProt O95838 1-553)
T1 sequence (looked up): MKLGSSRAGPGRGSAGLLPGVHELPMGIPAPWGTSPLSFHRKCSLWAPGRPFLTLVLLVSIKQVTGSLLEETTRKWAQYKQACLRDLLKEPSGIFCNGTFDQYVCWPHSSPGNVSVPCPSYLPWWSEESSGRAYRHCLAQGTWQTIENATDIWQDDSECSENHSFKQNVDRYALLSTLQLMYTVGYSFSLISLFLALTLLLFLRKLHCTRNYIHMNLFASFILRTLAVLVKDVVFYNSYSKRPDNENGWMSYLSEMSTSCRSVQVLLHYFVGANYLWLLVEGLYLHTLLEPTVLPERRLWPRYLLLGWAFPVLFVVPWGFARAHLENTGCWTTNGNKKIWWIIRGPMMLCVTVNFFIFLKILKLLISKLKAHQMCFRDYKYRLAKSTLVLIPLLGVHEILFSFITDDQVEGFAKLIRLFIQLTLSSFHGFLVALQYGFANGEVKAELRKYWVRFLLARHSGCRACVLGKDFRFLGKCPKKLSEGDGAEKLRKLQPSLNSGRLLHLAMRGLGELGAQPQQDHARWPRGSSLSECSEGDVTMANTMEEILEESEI

human GIP receptor [2] = molecular target: T2, human GIP receptor (human, UniProt P48546 22-466)
T2 sequence (looked up): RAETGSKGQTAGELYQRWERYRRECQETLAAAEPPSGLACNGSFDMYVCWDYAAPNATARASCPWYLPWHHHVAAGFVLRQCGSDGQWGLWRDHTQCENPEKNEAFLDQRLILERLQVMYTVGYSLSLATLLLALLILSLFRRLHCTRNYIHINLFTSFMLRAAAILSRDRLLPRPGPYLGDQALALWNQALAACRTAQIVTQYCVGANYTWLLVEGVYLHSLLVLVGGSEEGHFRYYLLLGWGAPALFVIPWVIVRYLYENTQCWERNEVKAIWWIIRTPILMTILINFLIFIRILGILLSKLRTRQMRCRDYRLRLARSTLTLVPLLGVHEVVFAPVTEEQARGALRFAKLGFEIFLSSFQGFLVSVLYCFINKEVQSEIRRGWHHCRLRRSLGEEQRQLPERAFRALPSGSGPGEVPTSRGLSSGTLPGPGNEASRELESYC

human GLP-2 receptor [3] = molecular target: T1, human GLP-2 receptor; remark: listed apart in the source
human GIP receptor [4] = molecular target: T2, human GIP receptor; remark: listed apart in the source

HAEGTFISDYSTILDNLAARDFVNWLLAQKITD [GIP-GLP-2 co-agonist 9] was tested, and the “EC50 (cAMP)” value (human GLP-2 receptor [1]) was 123 nM, the “Emax (10 µM), % of native GLP-2” value (human GLP-2 receptor [1]) was 67% and the “fold (EC50 vs native GLP-2)” value (human GLP-2 receptor [1]) was 103 fold. The “logEC50 (cAMP)” value (human GLP-2 receptor [1]) was -6.91, the “EC50 (cAMP)” value (human GIP receptor [2]) was 3.2 nM and the “Emax (10 µM), % of native GIP” value (human GIP receptor [2]) was 100%. For the same binder, the “fold (EC50 vs native GIP)” value (human GIP receptor [2]) was 36 fold and the “logEC50 (cAMP)” value (human GIP receptor [2]) was -8.5.

With HAEGTFISDYSTILDNLAARDFINWLIQTKITDNDWKHNITQ [GIP-GLP-2 co-agonist 2] the “EC50 (cAMP)” value (human GLP-2 receptor [1]) was 145 nM, the “Emax (1 µM), % of native GLP-2” value (human GLP-2 receptor [1]) was 93% and the “fold (EC50 vs native GLP-2)” value (human GLP-2 receptor [1]) was 121 fold. For the same binder, the “logEC50 (cAMP)” value (human GLP-2 receptor [1]) was -6.84, the “EC50 (cAMP)” value (human GIP receptor [2]) was 12 nM and the “Emax (1 µM), % of native GIP” value (human GIP receptor [2]) was 100%. For the same binder, the “fold (EC50 vs native GIP)” value (human GIP receptor [2]) was 135 fold and the “logEC50 (cAMP)” value (human GIP receptor [2]) was -7.92.

HVDGTFISDYSTILDNLAARDFINWLIQTKITD [GIP-GLP-2 co-agonist 12] was tested, and the “EC50 (cAMP)” value (human GLP-2 receptor [1]) was 25 nM, the “Emax (10 µM), % of native GLP-2” value (human GLP-2 receptor [1]) was 81% and the “fold (EC50 vs native GLP-2)” value (human GLP-2 receptor [1]) was 21 fold. The “logEC50 (cAMP)” value (human GLP-2 receptor [1]) was -7.6, the “EC50 (cAMP)” value (human GIP receptor [2]) was 1.1 nM and the “Emax (10 µM), % of native GIP” value (human GIP receptor [2]) was 96%. For the same binder, the “fold (EC50 vs native GIP)” value (human GIP receptor [2]) was 12 fold and the “logEC50 (cAMP)” value (human GIP receptor [2]) was -8.96.

For HAEGSFISDYSTILDNLAARDFINWLIQTKITD [GIP-GLP-2 co-agonist 4], the “EC50 (cAMP)” value (human GLP-2 receptor [1]) was 25 nM, the “Emax (10 µM), % of native GLP-2” value (human GLP-2 receptor [1]) was 90% and the “fold (EC50 vs native GLP-2)” value (human GLP-2 receptor [1]) was 21 fold. The “logEC50 (cAMP)” value (human GLP-2 receptor [1]) was -7.59, the “EC50 (cAMP)” value (human GIP receptor [2]) was 38 nM and the “Emax (10 µM), % of native GIP” value (human GIP receptor [2]) was 83%. For the same binder, the “fold (EC50 vs native GIP)” value (human GIP receptor [2]) was 427 fold and the “logEC50 (cAMP)” value (human GIP receptor [2]) was -7.42.

HAEGTFISDYSTILDNLAARDFINWLIQTKITD [GIP-GLP-2 co-agonist 1] was tested, and the “EC50 (cAMP)” value (human GLP-2 receptor [1]) was 98 nM, the “Emax (1 µM), % of native GLP-2” value (human GLP-2 receptor [1]) was 93% and the “fold (EC50 vs native GLP-2)” value (human GLP-2 receptor [1]) was 82 fold. The “logEC50 (cAMP)” value (human GLP-2 receptor [1]) was -7.01, the “EC50 (cAMP)” value (human GIP receptor [2]) was 30 nM and the “Emax (1 µM), % of native GIP” value (human GIP receptor [2]) was 100%. The “fold (EC50 vs native GIP)” value (human GIP receptor [2]) was 337 fold and the “logEC50 (cAMP)” value (human GIP receptor [2]) was -7.53.

With HADGTFISDYSTILDNLAARDFINWLIQTKITD [GIP-GLP-2 co-agonist 3] the “EC50 (cAMP)” value (human GLP-2 receptor [1]) was 21 nM, the “Emax (10 µM), % of native GLP-2” value (human GLP-2 receptor [1]) was 100% and the “fold (EC50 vs native GLP-2)” value (human GLP-2 receptor [1]) was 18 fold. For the same binder, the “logEC50 (cAMP)” value (human GLP-2 receptor [1]) was -7.67, the “EC50 (cAMP)” value (human GIP receptor [2]) was 0.11 nM and the “Emax (10 µM), % of native GIP” value (human GIP receptor [2]) was 100%. For the same binder, the “fold (EC50 vs native GIP)” value (human GIP receptor [2]) was 1.2 fold and the “logEC50 (cAMP)” value (human GIP receptor [2]) was -9.97.

With HADGTFISDYSTILDNLAARDFINWLIQTKITK [GIP-GLP-2 co-agonist 18] the “EC50 (cAMP)” value (human GLP-2 receptor [1]) was 5.3 nM, the “Emax (10 µM), % of native GLP-2” value (human GLP-2 receptor [1]) was 94% and the “fold (EC50 vs native GLP-2)” value (human GLP-2 receptor [1]) was 4.4 fold. For the same binder, the “logEC50 (cAMP)” value (human GLP-2 receptor [1]) was -8.28, the “EC50 (cAMP)” value (human GIP receptor [2]) was 0.66 nM and the “Emax (10 µM), % of native GIP” value (human GIP receptor [2]) was 89%. The “fold (EC50 vs native GIP)” value (human GIP receptor [2]) was 7.4 fold and the “logEC50 (cAMP)” value (human GIP receptor [2]) was -9.18.

For HADGTFISDYSTILDNLAARDFINWLIQTKIKD [GIP-GLP-2 co-agonist 17], the “EC50 (cAMP)” value (human GLP-2 receptor [1]) was 25 nM, the “Emax (10 µM), % of native GLP-2” value (human GLP-2 receptor [1]) was 88% and the “fold (EC50 vs native GLP-2)” value (human GLP-2 receptor [1]) was 21 fold. The “logEC50 (cAMP)” value (human GLP-2 receptor [1]) was -7.61, the “EC50 (cAMP)” value (human GIP receptor [2]) was 0.4 nM and the “Emax (10 µM), % of native GIP” value (human GIP receptor [2]) was 95%. For the same binder, the “fold (EC50 vs native GIP)” value (human GIP receptor [2]) was 4.5 fold and the “logEC50 (cAMP)” value (human GIP receptor [2]) was -9.39.

For HADGTFISDYSTILDNLAARDFINWLIQTKGKK [GIP-GLP-2 co-agonist 19], the “Emax (10 µM), % of native GLP-2” value (human GLP-2 receptor [1]) was 91%, the “EC50 (cAMP)” value (human GIP receptor [2]) was 0.25 nM and the “Emax (10 µM), % of native GIP” value (human GIP receptor [2]) was 93%. For the same binder, the “logEC50 (cAMP)” value (human GIP receptor [2]) was -9.6.

In the case of HADGTFIDDYSTILDNLAARDFINWLIQTKITD [GIP-GLP-2 co-agonist 14], the “EC50 (cAMP)” value (human GLP-2 receptor [1]) is reported as 11 nM, the “Emax (10 µM), % of native GLP-2” value (human GLP-2 receptor [1]) is reported as 90% and the “fold (EC50 vs native GLP-2)” value (human GLP-2 receptor [1]) is reported as 9.2 fold. For the same binder, the “logEC50 (cAMP)” value (human GLP-2 receptor [1]) was -7.97, the “EC50 (cAMP)” value (human GIP receptor [2]) was 2.4 nM and the “Emax (10 µM), % of native GIP” value (human GIP receptor [2]) was 94%. For the same binder, the “fold (EC50 vs native GIP)” value (human GIP receptor [2]) was 27 fold and the “logEC50 (cAMP)” value (human GIP receptor [2]) was -8.63.

HADGTFSSDYSTILDNLAAKDFINWLIQTKITD [GIP-GLP-2 co-agonist 20] was tested, and the “EC50 (cAMP)” value (human GLP-2 receptor [3]) was 1.2 nM, the “Emax (10 µM), % of native GLP-2” value (human GLP-2 receptor [3]) was 80% and the “fold (EC50 vs native GLP-2)” value (human GLP-2 receptor [3]) was 1 fold. For the same binder, the “logEC50 (cAMP)” value (human GLP-2 receptor [3]) was -8.92, the “EC50 (cAMP)” value (human GIP receptor [4]) was 0.59 nM and the “Emax (10 µM), % of native GIP” value (human GIP receptor [4]) was 98%. For the same binder, the “fold (EC50 vs native GIP)” value (human GIP receptor [4]) was 6.6 fold and the “logEC50 (cAMP)” value (human GIP receptor [4]) was -9.23.
